Positions of bridges follow the written chain, without caps; N, C: chain ends. Non-standard residues stand in square brackets, D forms with d. Pro(trans-4-guanidino) = N=C(N)N[C@H]1CN[C@H](C(=O)O)C1; Pro(cis-4-guanidino) = NC(N)=N[C@@H]1CN[C@H](C(=O)O)C1; Lys(Me2) = CN(C)CCCC[C@H](N)C(=O)O; Hyp = O=C(O)[C@@H]1C[C@@H](O)CN1; Orn = NCCC[C@H](N)C(=O)O; Thz = O=C(O)[C@@H]1CSCN1; Dab = NCC[C@H](N)C(=O)O
B1: Chem. 108 (peptide)
peptide: cyclo(C[Thz]H[dF]HWCAEDAW)
modifications: disulfide 1-7
SMILES: C[C@@H]1NC(=O)[C@H](CC(=O)O)NC(=O)[C@H](CCC(=O)O)NC(=O)[C@H](C)NC(=O)[C@@H]2CSSC[C@H](NC(=O)[C@H](Cc3c[nH]c4ccccc34)NC1=O)C(=O)N1CSC[C@H]1C(=O)N[C@@H](Cc1c[nH]cn1)C(=O)N[C@H](Cc1ccccc1)C(=O)N[C@@H](Cc1c[nH]cn1)C(=O)N[C@@H](Cc1c[nH]c3ccccc13)C(=O)N2
notes: also called c[c[Cys-THAZ-His-D-Phe-His-Trp-Cys]-Ala-Glu-Asp-Ala-Trp]
B2: Chem. 14 (peptide)
peptide: cyclo(CA[Hyp][dF]RWCA[Hyp][dF]RW)
modifications: disulfide 1-7
SMILES: C[C@@H]1NC(=O)[C@@H]2CSSC[C@H](NC(=O)[C@H](Cc3c[nH]c4ccccc34)NC(=O)[C@H](CCCNC(=N)N)NC(=O)[C@@H](Cc3ccccc3)NC(=O)[C@@H]3C[C@@H](O)CN3C1=O)C(=O)N[C@@H](C)C(=O)N1C[C@H](O)C[C@H]1C(=O)N[C@H](Cc1ccccc1)C(=O)N[C@@H](CCCNC(=N)N)C(=O)N[C@@H](Cc1c[nH]c3ccccc13)C(=O)N2
notes: also called c[c[Cys-Ala-Hyp-D-Phe-Arg-Trp-Cys]-Ala-Hyp-D-Phe-Arg-Trp]
B3: Chem. 15 (peptide)
peptide: cyclo(CAH[dF]KWCAH[dF]KW)
modifications: disulfide 1-7
SMILES: C[C@@H]1NC(=O)[C@@H]2CSSC[C@H](NC(=O)[C@H](Cc3c[nH]c4ccccc34)NC(=O)[C@H](CCCCN)NC(=O)[C@@H](Cc3ccccc3)NC(=O)[C@H](Cc3c[nH]cn3)NC1=O)C(=O)N[C@@H](C)C(=O)N[C@@H](Cc1c[nH]cn1)C(=O)N[C@H](Cc1ccccc1)C(=O)N[C@@H](CCCCN)C(=O)N[C@@H](Cc1c[nH]c3ccccc13)C(=O)N2
notes: also called c[c[Cys-Ala-His-D-Phe-Lys-Trp-Cys]-Ala-His-D-Phe-Lys-Trp]
B4: Chem. 2 (peptide)
peptide: cyclo(CGH[dF]RWCGH[dF]RW)
modifications: disulfide 1-7
SMILES: N=C(N)NCCC[C@@H]1NC(=O)[C@@H](Cc2ccccc2)NC(=O)[C@H](Cc2c[nH]cn2)NC(=O)CNC(=O)[C@@H]2CSSC[C@H](NC(=O)[C@H](Cc3c[nH]c4ccccc34)NC1=O)C(=O)NCC(=O)N[C@@H](Cc1c[nH]cn1)C(=O)N[C@H](Cc1ccccc1)C(=O)N[C@@H](CCCNC(=N)N)C(=O)N[C@@H](Cc1c[nH]c3ccccc13)C(=O)N2
notes: also called c[c[Cys-Gly-His-D-Phe-Arg-Trp-Cys]-Gly-His-D-Phe-Arg-Trp]
B5: Chem. 16 (peptide)
peptide: cyclo(CAH[dF][Orn]WCAH[dF][Orn]W)
modifications: disulfide 1-7
SMILES: C[C@@H]1NC(=O)[C@@H]2CSSC[C@H](NC(=O)[C@H](Cc3c[nH]c4ccccc34)NC(=O)[C@H](CCCN)NC(=O)[C@@H](Cc3ccccc3)NC(=O)[C@H](Cc3c[nH]cn3)NC1=O)C(=O)N[C@@H](C)C(=O)N[C@@H](Cc1c[nH]cn1)C(=O)N[C@H](Cc1ccccc1)C(=O)N[C@@H](CCCN)C(=O)N[C@@H](Cc1c[nH]c3ccccc13)C(=O)N2
notes: also called c[c[Cys-Ala-His-D-Phe-Orn-Trp-Cys]-Ala-His-D-Phe-Orn-Trp]
B6: Chem. 17 (peptide)
peptide: cyclo(CAH[dF][Dab]WCAH[dF][Dab]W)
modifications: disulfide 1-7
SMILES: C[C@@H]1NC(=O)[C@@H]2CSSC[C@H](NC(=O)[C@H](Cc3c[nH]c4ccccc34)NC(=O)[C@H](CCN)NC(=O)[C@@H](Cc3ccccc3)NC(=O)[C@H](Cc3c[nH]cn3)NC1=O)C(=O)N[C@@H](C)C(=O)N[C@@H](Cc1c[nH]cn1)C(=O)N[C@H](Cc1ccccc1)C(=O)N[C@@H](CCN)C(=O)N[C@@H](Cc1c[nH]c3ccccc13)C(=O)N2
notes: also called c[c[Cys-Ala-His-D-Phe-Dab-Trp-Cys]-Ala-His-D-Phe-Dab-Trp]
B7: Chem. 18 (peptide)
peptide: cyclo(CAH[dF][Lys(Me2)]WCAH[dF][Lys(Me2)]W)
modifications: disulfide 1-7
SMILES: C[C@@H]1NC(=O)[C@@H]2CSSC[C@H](NC(=O)[C@H](Cc3c[nH]c4ccccc34)NC(=O)[C@H](CCCCN(C)C)NC(=O)[C@@H](Cc3ccccc3)NC(=O)[C@H](Cc3c[nH]cn3)NC1=O)C(=O)N[C@@H](C)C(=O)N[C@@H](Cc1c[nH]cn1)C(=O)N[C@H](Cc1ccccc1)C(=O)N[C@@H](CCCCN(C)C)C(=O)N[C@@H](Cc1c[nH]c3ccccc13)C(=O)N2
notes: also called c[c[Cys-Ala-His-D-Phe-Lys(Me)2-Trp-Cys]-Ala-His-D-Phe-Lys(Me)2-Trp]
B8: Chem. 19 (peptide)
peptide: CAHFXWCAHFXW
modifications: D-Phe 4, 10; Cit 5, 11; disulphide Cys1-Cys7; head-to-tail amide Cys1-Trp12
notes: also called c[c[Cys-Ala-His-D-Phe-Cit-Trp-Cys]-Ala-His-D-Phe-Cit-Trp]
B9: Chem. 20 (peptide)
peptide: CXHFRWCXHFRW
modifications: ACBC 2, 8; D-Phe 4, 10; disulphide Cys1-Cys7; head-to-tail amide Cys1-Trp12
notes: also called c[c[Cys-ACBC-His-D-Phe-Arg-Trp-Cys]-ACBC-His-D-Phe-Arg-Trp]
B10: Chem. 22 (peptide)
peptide: CAHFXWCAHFXW
modifications: D-Phe 4, 10; HArg 5, 11; disulphide Cys1-Cys7; head-to-tail amide Cys1-Trp12
notes: also called c[c[Cys-Ala-His-D-Phe-HArg-Trp-Cys]-Ala-His-D-Phe-HArg-Trp]
B11: Chem. 23 (peptide)
peptide: cyclo(CA[Hyp][dF]RWCA[Hyp][dF]RW)
modifications: bridge 1-7 via methylene bridge (S-CH2-S)
notes: also called c[c[Cys-Ala-Hyp-D-Phe-Arg-Trp-Cys]-Ala-Hyp-D-Phe-Arg-Trp]; Note: methylene bridge
B12: Chem. 24 (peptide)
peptide: cyclo(CAH[dF]HWCAH[dF]HW)
modifications: disulfide 1-7
SMILES: C[C@@H]1NC(=O)[C@@H]2CSSC[C@H](NC(=O)[C@H](Cc3c[nH]c4ccccc34)NC(=O)[C@H](Cc3c[nH]cn3)NC(=O)[C@@H](Cc3ccccc3)NC(=O)[C@H](Cc3c[nH]cn3)NC1=O)C(=O)N[C@@H](C)C(=O)N[C@@H](Cc1c[nH]cn1)C(=O)N[C@H](Cc1ccccc1)C(=O)N[C@@H](Cc1c[nH]cn1)C(=O)N[C@@H](Cc1c[nH]c3ccccc13)C(=O)N2
notes: also called c[c[Cys-Ala-His-D-Phe-His-Trp-Cys]-Ala-His-D-Phe-His-Trp]
B13: Chem. 25 (peptide)
peptide: CXHFRWCXHFRW
modifications: βAla 2, 8; D-Phe 4, 10; disulphide Cys1-Cys7; head-to-tail amide Cys1-Trp12
notes: also called c[c[Cys-βAla-His-D-Phe-Arg-Trp-Cys]-βAla-His-D-Phe-Arg-Trp]
B14: Chem. 3 (peptide)
peptide: XAHFRWXAHFRW
modifications: HCys 1, 7; D-Phe 4, 10; disulphide HCys1-HCys7; head-to-tail amide HCys1-Trp12
notes: also called c[c[HCys-Ala-His-D-Phe-Arg-Trp-HCys]-Ala-His-D-Phe-Arg-Trp]
B15: Chem. 26 (peptide)
peptide: cyclo(C[Hyp][dF]RWC[Hyp][dF]RW)
modifications: bridge 1-6 via methylene bridge (S-CH2-S)
notes: also called c[c[Cys-Hyp-D-Phe-Arg-Trp-Cys]-Hyp-D-Phe-Arg-Trp]; Note: methylene bridge
B16: Chem. 27 (peptide)
peptide: cyclo(C[Hyp][dF]RWC[Hyp][dF]RW)
modifications: disulfide 1-6
SMILES: N=C(N)NCCC[C@@H]1NC(=O)[C@@H](Cc2ccccc2)NC(=O)[C@@H]2C[C@@H](O)CN2C(=O)[C@@H]2CSSC[C@H](NC(=O)[C@H](Cc3c[nH]c4ccccc34)NC1=O)C(=O)N1C[C@H](O)C[C@H]1C(=O)N[C@H](Cc1ccccc1)C(=O)N[C@@H](CCCNC(=N)N)C(=O)N[C@@H](Cc1c[nH]c3ccccc13)C(=O)N2
notes: also called c[c[Cys-Hyp-D-Phe-Arg-Trp-Cys]-Hyp-D-Phe-Arg-Trp]
B17: Chem. 28 (peptide)
peptide: cyclo(CAH[dF][Pro(trans-4-guanidino)]WCAH[dF][Pro(trans-4-guanidino)]W)
modifications: disulfide 1-7
SMILES: C[C@@H]1NC(=O)[C@@H]2CSSC[C@H](NC(=O)[C@H](Cc3c[nH]c4ccccc34)NC(=O)[C@@H]3C[C@@H](NC(=N)N)CN3C(=O)[C@@H](Cc3ccccc3)NC(=O)[C@H](Cc3c[nH]cn3)NC1=O)C(=O)N[C@@H](C)C(=O)N[C@@H](Cc1c[nH]cn1)C(=O)N[C@H](Cc1ccccc1)C(=O)N1C[C@H](NC(=N)N)C[C@H]1C(=O)N[C@@H](Cc1c[nH]c3ccccc13)C(=O)N2
notes: also called c[c[Cys-Ala-His-D-Phe-4trans-GuaPro-Trp-Cys]-Ala-His-D-Phe-4trans-GuaPro-Trp]
B18: Chem. 29 (peptide)
peptide: cyclo(CAH[dF][Pro(cis-4-guanidino)]WCAH[dF][Pro(cis-4-guanidino)]W)
modifications: disulfide 1-7
SMILES: C[C@@H]1NC(=O)[C@@H]2CSSC[C@H](NC(=O)[C@H](Cc3c[nH]c4ccccc34)NC(=O)[C@@H]3C[C@H](N=C(N)N)CN3C(=O)[C@@H](Cc3ccccc3)NC(=O)[C@H](Cc3c[nH]cn3)NC1=O)C(=O)N[C@@H](C)C(=O)N[C@@H](Cc1c[nH]cn1)C(=O)N[C@H](Cc1ccccc1)C(=O)N1C[C@@H](N=C(N)N)C[C@H]1C(=O)N[C@@H](Cc1c[nH]c3ccccc13)C(=O)N2
notes: also called c[c[Cys-Ala-His-D-Phe-4cis-GuaPro-Trp-Cys]-Ala-His-D-Phe-4cis-GuaPro-Trp]
B19: Chem. 30 (peptide)
peptide: cyclo(CPH[dF]RWCPH[dF]RW)
modifications: disulfide 1-7
SMILES: N=C(N)NCCC[C@@H]1NC(=O)[C@@H](Cc2ccccc2)NC(=O)[C@H](Cc2c[nH]cn2)NC(=O)[C@@H]2CCCN2C(=O)[C@@H]2CSSC[C@H](NC(=O)[C@H](Cc3c[nH]c4ccccc34)NC1=O)C(=O)N1CCC[C@H]1C(=O)N[C@@H](Cc1c[nH]cn1)C(=O)N[C@H](Cc1ccccc1)C(=O)N[C@@H](CCCNC(=N)N)C(=O)N[C@@H](Cc1c[nH]c3ccccc13)C(=O)N2
notes: also called c[c[Cys-Pro-His-D-Phe-Arg-Trp-Cys]-Pro-His-D-Phe-Arg-Trp]

molecular target: T1, human melanocortin 4 receptor (human, UniProt P32245 1-332); experiment: cell-based or functional assay
T1 sequence (P32245 whole entry): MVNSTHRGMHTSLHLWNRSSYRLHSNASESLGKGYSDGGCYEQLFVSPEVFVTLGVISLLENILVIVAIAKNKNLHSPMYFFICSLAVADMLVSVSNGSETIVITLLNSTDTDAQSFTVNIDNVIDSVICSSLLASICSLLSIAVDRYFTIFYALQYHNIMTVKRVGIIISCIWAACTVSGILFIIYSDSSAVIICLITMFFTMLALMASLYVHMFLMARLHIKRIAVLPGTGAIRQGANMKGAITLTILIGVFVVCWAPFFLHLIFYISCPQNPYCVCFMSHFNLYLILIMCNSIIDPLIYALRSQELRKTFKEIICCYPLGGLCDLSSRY

Binder | MC4R cAMP EC50 [nM]
B1 | 2.52
B2 | 3.55
B3 | 0.09
B4 | 0.01
B5 | 0.21
B6 | 0.36
B7 | 0.12
B8 | 0.13
B9 | 0.04
B10 | 0.02
B11 | 3.26
B12 | 0.49
B13 | 0.02
B14 | 0.26
B15 | 0.18
B16 | 0.24
B17 | 518
B18 | 1020
B19 | 0.03

molecular target: human melanocortin 1 receptor (human, UniProt Q01726 1-317); experiment: cell-based or functional assay
Sequence (Q01726 whole entry): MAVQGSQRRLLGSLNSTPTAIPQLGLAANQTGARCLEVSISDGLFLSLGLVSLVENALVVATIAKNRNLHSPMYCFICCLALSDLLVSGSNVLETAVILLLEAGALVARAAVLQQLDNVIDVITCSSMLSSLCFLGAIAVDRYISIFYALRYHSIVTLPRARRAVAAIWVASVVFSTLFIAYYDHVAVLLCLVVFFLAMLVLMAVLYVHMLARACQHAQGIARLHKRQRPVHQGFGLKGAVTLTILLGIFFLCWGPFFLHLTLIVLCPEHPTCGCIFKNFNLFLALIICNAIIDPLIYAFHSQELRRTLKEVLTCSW

Binder | MC1R cAMP EC50 [nM]
B1 | > 100
B2 | > 10
B3 | 5.43
B4 | 1.54
B5 | > 1
B6 | 104
B7 | 4.22
B8 | > 1
B9 | 4.97
B10 | 0.22
B11 | > 10
B12 | 178
B13 | 0.34
B14 | 7.29
B15 | 17.2
B16 | 50.9
B17 | > 100
B18 | > 100
B19 | 0.61

molecular target: T1, human melanocortin 4 receptor; experiment: competition with 125-NDP-α-MSH, BHK human MC4R membranes
Method in brief: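 Competition binding used membranes from BHK cells stably expressing human MC4R with ¹²⁵I-NDP-α-MSH (apx. […] final), compound at 1 μM–0.001 nM. Incubation was 2 h at 25 °C in HEPES pH 7.0 buffer with CaCl₂, MgSO₄, EGTA, Tween 20 and 0.1% HSA or ovalbumin. Filter-bound radioactivity was fitted by non-linear regression.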

Binder | Ki [nM]
B1 | 23.3
B2 | 30.2
B3 | 0.12
B4 | 0.07
B5 | 0.34
B6 | 0.83
B7 | 0.38
B8 | 1.49
B9 | 0.15
B10 | 0.06
B11 | 13.6
B12 | 0.55
B13 | 0.04
B14 | 0.42
B15 | 0.44
B16 | 1.01
B17 | 892
B18 | 1210
B19 | 0.09

Source: patent US20200223889A1 (Novo Nordisk, published 2020)
